Biological target: SARS-CoV-2 spike protein, original Wuhan strain (WT) (SARS-CoV-2) (UniProt P0DTC2)
Test: cell-based or functional assay

A19-46.1 (antibody), sequence (VH): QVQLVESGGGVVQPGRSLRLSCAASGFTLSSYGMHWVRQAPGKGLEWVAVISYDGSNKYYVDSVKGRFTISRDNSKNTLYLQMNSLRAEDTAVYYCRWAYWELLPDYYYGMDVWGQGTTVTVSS
A19-46.1 (antibody), sequence (VL): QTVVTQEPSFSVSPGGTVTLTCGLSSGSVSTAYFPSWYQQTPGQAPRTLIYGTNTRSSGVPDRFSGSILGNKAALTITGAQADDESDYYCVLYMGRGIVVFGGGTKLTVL
A19-46 mAb (antibody), sequence (VH): as the sequence (VH) above
A19-46 mAb (antibody), sequence (VL): as the sequence (VL) above

In order of rising IC50, pseudovirus neutralization:
1. B1-182 mAb (antibody)  0.0264 nM
2. B1-182.1 (antibody)  0.0264 nM
3. A19-61 mAb (antibody)  0.172 nM
4. A19-46 mAb (antibody)  0.263 nM
5. A19-46.1 (antibody)  0.263 nM

In order of rising IC80, pseudovirus neutralization:
1. B1-182 mAb (antibody)  0.0692 nM
2. B1-182.1 (antibody)  0.0692 nM
3. A19-61 mAb (antibody)  0.408 nM
4. A19-46 mAb (antibody)  0.778 nM
5. A19-46.1 (antibody)  0.778 nM
